From patent US20140127815A1 come the findings set out here.

The test deals with GPIba (CD42b) (human) (UniProt P07359). In words: cell-based or functional assay.
Chain of UniProt P07359 (P07359 17-652): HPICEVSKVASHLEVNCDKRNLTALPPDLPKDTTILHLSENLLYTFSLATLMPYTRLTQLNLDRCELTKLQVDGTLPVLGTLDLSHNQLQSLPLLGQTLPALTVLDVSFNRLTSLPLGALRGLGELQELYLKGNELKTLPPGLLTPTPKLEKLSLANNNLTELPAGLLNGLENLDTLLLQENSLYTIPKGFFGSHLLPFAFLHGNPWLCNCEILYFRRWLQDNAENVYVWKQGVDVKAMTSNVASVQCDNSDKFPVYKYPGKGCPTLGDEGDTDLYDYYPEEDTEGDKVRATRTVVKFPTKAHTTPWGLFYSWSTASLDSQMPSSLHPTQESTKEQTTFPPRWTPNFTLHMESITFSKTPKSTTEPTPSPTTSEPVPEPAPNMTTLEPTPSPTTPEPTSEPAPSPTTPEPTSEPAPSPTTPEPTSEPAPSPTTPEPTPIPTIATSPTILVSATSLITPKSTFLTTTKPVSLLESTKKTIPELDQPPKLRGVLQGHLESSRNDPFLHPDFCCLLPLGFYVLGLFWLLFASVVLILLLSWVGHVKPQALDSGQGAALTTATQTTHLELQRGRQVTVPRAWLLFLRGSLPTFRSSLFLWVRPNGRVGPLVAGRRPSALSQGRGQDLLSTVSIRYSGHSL

Substance HIP1 antibody came in with a ristocetin agglutination reaction of human peripheral blood platelets (maximum light transmission) greater than 10 µg/mL.
